# T1: BCMA on BCMA-positive NCI-H929, ARP-1 and U266B1 cells (human, UniProt Q02223 1-184)
# T1 construct: they are human cell lines; also called B-cell maturation antigen; TNFRSF17
# T1 sequence: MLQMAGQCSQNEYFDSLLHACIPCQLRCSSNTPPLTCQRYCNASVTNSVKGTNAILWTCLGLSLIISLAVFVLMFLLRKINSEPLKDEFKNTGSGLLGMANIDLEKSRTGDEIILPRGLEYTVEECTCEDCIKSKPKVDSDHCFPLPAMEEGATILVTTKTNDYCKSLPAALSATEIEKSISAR
# Assays:
# [1] = biological target: cynomolgus BCMA on 293T-cynoBCMA cells (cynomolgus, UniProt Q02223 1-184 (human entry)); assay: FACS, 293T-cynoBCMA cells
# Sequence of cynomolgus BCMA on 293T-cynoBCMA cells (Q02223 other isoform, or with tags, fused parts or gaps): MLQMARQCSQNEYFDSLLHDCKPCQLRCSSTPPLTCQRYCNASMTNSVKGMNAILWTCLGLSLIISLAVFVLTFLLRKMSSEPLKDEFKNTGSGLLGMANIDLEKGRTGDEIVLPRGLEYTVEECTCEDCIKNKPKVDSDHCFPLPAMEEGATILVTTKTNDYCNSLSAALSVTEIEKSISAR
# Method: (§1) Variants for which sufficient protein was purified in secondary screening were tested in a fluorescence-activated cell sorting (FACS) cell-binding assay. […] 6-12 point dilutions of anti-BCMA variants starting from concentrations of about 100-200 nM antibody were dispensed into each well using a BioMekFX (Beckman Coulter). Cells were then incubated on ice for 1 hr, washed with FACS buffer and incubated for 1 hr on ice with […] FACS buffer containing […] Alexa647-conjugated Goat Anti-Human IgG dispensed using BioMekFX (Beckman Coulter). Cells were then washed 2× with FACS buffer and fixed for 10 minutes in […] PBS with 2% PFA prior to fluorescence detection. Samples were acquired using a Beckton Dickinson LSRII FACS. Geometric Mean Fluorescence Intensity of BCMA antibody binding was analyzed using FlowJo® software (Trec Star, Inc.).
# [2] = biological target: T1, BCMA on BCMA-positive NCI-H929, ARP-1 …; assay: FACS, NCI-H929 cells
# Method: as §1
# [3] = biological target: T1, BCMA on BCMA-positive NCI-H929, ARP-1 …; assay: cell-based or functional assay
# [4] = biological target: T1, BCMA on BCMA-positive NCI-H929, ARP-1 …; assay: cell-based or functional assay; remark: listed apart in the source
Binder,Bmax (MFI) [1],Bmax (MFI) [2],"ARP-1, SC239-conjugated 2° antibody cell killing, EC50 [3]","ARP-1, SC239-conjugated 2° antibody cell killing, Span [3]","U266B1, SC239-conjugated 2° antibody cell killing, EC50 [3]","U266B1, SC239-conjugated 2° antibody cell killing, Span [3]","ARP-1, SC225-conjugated 2° antibody cell killing, EC50 [4]","ARP-1, SC225-conjugated 2° antibody cell killing, Span [4]","U266B1, SC225-conjugated 2° antibody cell killing, EC50 [4]","U266B1, SC225-conjugated 2° antibody cell killing, Span [4]",Kd [1],Kd [2]
"SRP2137-A05 (antibody, IgG1, V domains shown, IgG1 with trastuzumab light chain, His/FLAG-tagged, cell-free expressed; also called Antibody 14) VH: EVQLVESGGGLVQPGGSLRLSCAASGFNINNSYIHWVRQAPGKGLEWVGWIYPYSGYTNYADSVKGRFTISADTSKNTAYLQMNSLRAEDTAVYYCARDYGPWYGTGVLDYWGQGTLVTVSS VL: not shown",1910 MFI,2690 MFI,–,–,–,–,–,–,–,–,–,–
"9A8 (antibody, V domains shown, chicken HybriFree-derived antibody; also called Antibody 30) VH: AVTLDESGGGLQTPGGTLSLVCKASGFTFSSFNMFWVRQAPGKGLEWVAYIRNDGNSASYGPAVKGRATISRDNGQSTVRLQLNNLRAEDTATYYCAKTTCIGSGGCIDTWGHGTEVIVSS VL: ALTQPSSVSANPGETVKITCSGGSSDYGWFQQKSPGSAPVTVIYSNNQRPSGIPSRFSGSKSGSTGTLTITGVQAEDEAIYYCANVDYTDDVFGAGTTLTVL",17800 MFI,21100 MFI,2.4 nM,82%,2.3 nM,42%,–,–,–,–,–,–
"10G5 (antibody, V domains shown, chicken HybriFree-derived antibody; also called Antibody 31) VH: AVTLDESGGGLQTPGGVLSLVCKASGFTFSSFNMFWVRQAPGKGLEWVAYISNDGSSTSYGPAVKGRATISRDNGQSTVRLQLNNLRAEDTATYFCAKTTCIGSGGCIDTWGHGTEVIVSS VL: ALTQPSSVSANPGETVKITCSGGNYDYGWYQQKSPGSAPVTLIYYNNKRPSDIPSRFSGSKSGSTGTLTITGVQAEDEAIYYCANVDSTDDVFGAGTTLTVL",24400 MFI,25800 MFI,3.5 nM,82%,1.9 nM,63%,–,–,–,–,–,–
"SRP2213-A06 (antibody, IgG1, V domains shown, IgG1 with trastuzumab light chain, His/FLAG-tagged, cell-free expressed; also called Antibody 23) VH: EVQLVESGGGLVQPGGSLRLSCAASGFNISSYAIHWVRQAPGKGLEWVGVISPYGGYTEYADSVKGRFTISADTSKNTAYLQMNSLRAEDTAVYYCARDFYDRYSTYVLDYWGQGTLVTVSS VL: not shown",3620 MFI,2510 MFI,–,–,–,–,–,–,–,–,–,–
"SRP2265-C02 (antibody, IgG1, V domains shown, IgG1 with trastuzumab light chain, His/FLAG-tagged, cell-free expressed; also called Antibody 12) VH: EVQLVESGGGLVQPGGSLRLSCAASGFNIGVSGIHWVRQAPGKGLEWVGFINPAGGYTDYAGSVKGRFTISADTSKNTAYLQMNSLRAEDTAVYYCARDYIYSYWTYVLDYWGQGTLVTVSS VL: not shown",17400 MFI,11200 MFI,–,–,–,–,1.5 nM,55%,0.7 nM,51%,2.5 nM,4.3 nM
"SRP2265-D11 (antibody, IgG1, V domains shown, IgG1 with trastuzumab light chain, His/FLAG-tagged, cell-free expressed; also called Antibody 9) VH: EVQLVESGGGLVQPGGSLRLSCAASGFNISGPGIHWVRQAPGKGLEWVGFINPAAGYTDYADSVKGRFTISADTSKNTAYLQMNSLRAEDTAVYYCARDYIYQYWTYVLDYWGQGTLVTVSS VL: not shown",21900 MFI,9620 MFI,–,–,–,–,1.9 nM,51%,1 nM,54%,2.5 nM,4.4 nM
"SRP2265-B06 (antibody, IgG1, V domains shown, IgG1 with trastuzumab light chain, His/FLAG-tagged, cell-free expressed; also called Antibody 5) VH: EVQLVESGGGLVQPGGSLRLSCAASGFNIRVSGIHWVRQAPGKGLEWVGFINPAGGYTDYADSVKGRFTISADTSKNTAYLQMNSLRAEDTAVYYCARDYVQAYWTYVLDYWGQGTLVTVSS VL: not shown",26600 MFI,11900 MFI,–,–,–,–,1.6 nM,67%,0.6 nM,59%,3.4 nM,6.2 nM
"SRP2265-C03 (antibody, IgG1, V domains shown, IgG1 with trastuzumab light chain, His/FLAG-tagged, cell-free expressed; also called Antibody 11) VH: EVQLVESGGGLVQPGGSLRLSCAAPGFNISVPGIHWVRQAPGKGLEWVGFINPAGGYTDYADSVKGRFTISADTSKNTAYLQMNSLRAEDTAVYYCARDYVPQYWTYVLDYWGQGTLVTVSS VL: not shown",24100 MFI,11500 MFI,–,–,–,–,2.2 nM,70%,1.1 nM,61%,4.9 nM,4.4 nM

# Source: patent publication US20240368295A1 (SUTRO BIOPHARMA, published 2024)
